# From patent publication US20240261333A1, “NOVEL TARGETS FOR ENHANCING ANTI-TUMOR IMMUNITY” (THE BROAD INSTITUTE, INC., priority 2021, published 2024)
# T1: B3GNT2 (Homo sapiens, UniProt Q9NY97)
# T1 construct: The respective ORFs of candidate genes [CD274 (NM_014143), MCL1 (NM_021960), JUNB (NM_002229), and B3GNT2 (NM_006577)] were synthesized; expressed in transfected cells; host or cells: A375 melanoma cells (lentiviral ORF overexpression)
# T1 sequence (Q9NY97 1-397): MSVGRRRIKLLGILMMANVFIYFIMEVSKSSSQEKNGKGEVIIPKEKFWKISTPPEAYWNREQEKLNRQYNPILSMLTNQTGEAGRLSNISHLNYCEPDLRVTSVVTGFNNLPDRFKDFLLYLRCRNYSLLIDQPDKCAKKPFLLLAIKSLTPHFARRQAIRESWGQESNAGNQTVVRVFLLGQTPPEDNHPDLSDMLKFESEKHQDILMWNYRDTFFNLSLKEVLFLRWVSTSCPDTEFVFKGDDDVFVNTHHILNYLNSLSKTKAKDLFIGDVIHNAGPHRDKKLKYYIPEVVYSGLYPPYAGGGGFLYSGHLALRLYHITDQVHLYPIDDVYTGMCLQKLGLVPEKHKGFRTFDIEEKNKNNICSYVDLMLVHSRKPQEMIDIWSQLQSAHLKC
# Biological target: T1, B3GNT2
# Assay: Co-IP of FLAG-tagged B3GNT2 followed by mass spectrometry
# Type: cell-based
# Set-up: C-term IgG / C-term flag: unit not given here
# Method in brief: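 Co-purifying proteins were identified by fractionated nano-LC–MS/MS on an Orbitrap Elite, run data-dependent. Beforehand, lysates in 1% Triton X-100/HEPES buffer were incubated overnight at 4° C with anti-FLAG or […] and pulled down on Protein A/G magnetic beads for 4 h. Duplicate biological replicates.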
# [1] = Co-IP followed by mass spectrometry of B3GNT2, C-term tag, FLAG pull-down
# [2] = Co-IP followed by mass spectrometry of B3GNT2, C-term tag, IgG pull-down
# [3] = Co-IP followed by mass spectrometry of B3GNT2, N-term tag, FLAG pull-down
# [4] = Co-IP followed by mass spectrometry of B3GNT2, N-term tag, IgG pull-down
Molecule,"C-term flag (Co-IP with FLAG antibody, C-terminally FLAG-tagged B3GNT2, mass spectrometry count, unit not given)","N-term FLAG (Co-IP with FLAG antibody, N-terminally FLAG-tagged B3GNT2, mass spectrometry count, unit not given)","C-term IgG (Co-IP with IgG control antibody, C-terminally FLAG-tagged B3GNT2, mass spectrometry count, unit not given)","N-term IgG (Co-IP with IgG control antibody, N-terminally FLAG-tagged B3GNT2, mass spectrometry count, unit not given)",C-term flag [1],C-term IgG [2],N-term FLAG [3],N-term IgG [4]
PDIA3 (protein) SDVLELTDDNFESRISDTGSAGLMLVEFFAPWCGHCKRLAPEYEAAATRLKGIVPLAKVDCTANTNTCNKYGVSGYPTLKIFRDGEEAGAYDGPRTADGIVSHLKKQAGPASVPLRTEEEFKKFISDKDASIVGFFDDSFSEAHSEFLKAASNLRDNYRFAHTNVESLVNEYDDNGEGIILFRPSHLTNKFEDKTVAYTEQKMTSGKIKKFIQENIFGICPHMTEDNKDLIQGKDLLIAYYDVDYEKNAKGSNYWRNRVMMVAKKFLDAGHKLNFAVASRKTFSHELSDFGLESTAGEIPVVAIRTAKGEKFVMQEEFSRDGKALERFLQDYFDGNLKRYLKSEPIPESNDGPVKVVVAENFDEIVNNENKDVLIEFYAPWCGHCKNLEPKYKELGEKLSKDPNIVIAKMDATANDVPSPYEVRGFPTIYFSPANKKLNPKKYEGGRELSDFISYLQREATNPPVIQEEKPKKKKKAQEDL,24,14,0,0,,,,
"MAP4 (protein, UniProt P27816 2-1152, looked up) Microtubule-associated …: ADLSLADALTEPSPDIEGEIKRDFIATLEAEAFDDVVGETVGKTDYIPLLDVDEKTGNSESKKKPCSETSQIEDTPSSKPTLLANGGHGVEGSDTTGSPTEFLEEKMAYQEYPNSQNWPEDTNFCFQPEQVVDPIQTDPFKMYHDDDLADLVFPSSATADTSIFAGQNDPLKDSYGMSPCNTAVVPQGWSVEALNSPHSESFVSPEAVAEPPQPTAVPLELAKEIEMASEERPPAQALEIMMGLKTTDMAPSKETEMALAKDMALATKTEVALAKDMESPTKLDVTLAKDMQPSMESDMALVKDMELPTEKEVALVKDVRWPTETDVSSAKNVVLPTETEVAPAKDVTLLKETERASPIKMDLAPSKDMGPPKENKKETERASPIKMDLAPSKDMGPPKENKIVPAKDLVLLSEIEVAQANDIISSTEISSAEKVALSSETEVALARDMTLPPETNVILTKDKALPLEAEVAPVKDMAQLPETEIAPAKDVAPSTVKEVGLLKDMSPLSETEMALGKDVTPPPETEVVLIKNVCLPPEMEVALTEDQVPALKTEAPLAKDGVLTLANNVTPAKDVPPLSETEATPVPIKDMEIAQTQKGISEDSHLESLQDVGQSAAPTFMISPETVTGTGKKCSLPAEEDSVLEKLGERKPCNSQPSELSSETSGIARPEEGRPVVSGTGNDITTPPNKELPPSPEKKTKPLATTQPAKTSTSKAKTQPTSLPKQPAPTTIGGLNKKPMSLASGLVPAAPPKRPAVASARPSILPSKDVKPKPIADAKAPEKRASPSKPASAPASRSGSKSTQTVAKTTTAAAVASTGPSSRSPSTLLPKKPTAIKTEGKPAEVKKMTAKSVPADLSRPKSTSTSSMKKTTTLSGTAPAAGVVPSRVKATPMPSRPSTTPFIDKKPTSAKPSSTTPRLSRLATNTSAPDLKNVRSKVGSTENIKHQPGGGRAKVEKKTEAAATTRKPESNAVTKTAGPIASAQKQPAGKVQIVSKKVSYSHIQSKCGSKDNIKHVPGGGNVQIQNKKVDISKVSSKCGSKANIKHKPGGGDVKIESQKLNFKEKAQAKVGSLDNVGHLPAGGAVKTEGGGSEAPLCPGPPAGEEPAISEAAPEAGAPTSASGLNGHPTLSGGGDQREAQTLDSQIQETSI",,,,,5,0,0,0
GEMIN4 (protein) MDLGPLNICEEMTILHGGFLLAEQLFHPKALAELTKSDWERVGRPIVEALREISSAAAHSQPFAWKKKALIIIWAKVLQPHPVTPSDTETRWQEDLFFSVGNMIPTINHTILFELLKSLEASGLFIQLLMALPTTICHAELERFLEHVTVDTSAEDVAFFLDVWWEVMKHKGHPQDPLLSQFSAMAHKYLPALDEFPHPPKRLRSDPDACPTMPLLAMLLRGLTQIQSRILGPGRKCCALANLADMLTVFALTEDDPQEVSATVYLDKLATVISVWNSDTQNPYHQQALAEKVKEAERDVSLTSLAKLPSETIFVGCEFLHHLLREWGEELQAVLRSSQGTSYDSYRLCDSLTSFSQNATLYLNRTSLSKEDRQVVSELAECVRDFLRKTSTVLKNRALEDITASIAMAVIQQKMDRHMEVCYIFASEKKWAFSDEWVACLGSNRALFRQPDLVLRLLETVIDVSTADRAIPESQIRQVIHLILECYADLSLPGKNKVLAGILRSWGRKGLSEKLLAYVEGFQEDLNTTFNQLTQSASEQGLAKAVASVARLVIVHPEVTVKKMCSLAVVNLGTHKFLAQILTAFPALRFVEEQGPNSSATFMVSCLKETVWMKFSTPKEEKQFLELLNCLMSPVKPQGIPVAALLEPDEVLKEFVLPFLRLDVEEVDLSLRIFIQTLEANACREEYWLQTCSPFPLLFSLCQLLDRFSKYWQLPKEKRCLSLDRKDLAIHILELLCEIVSANAETFSPDVWIKSLSWLHRKLEQLDWTVGLRLKSFFEGHFKCEVPATLFEICKLSEDEWTSQAHPGYGAGTGLLAWMECCCVSSGISERMLSLLVVDVGNPEEVRLFSKGFLVALVQVMPWCSPQEWQRLHQLTRRLLEKQLLHVPYSLEYIQFVPLLNLKPFAQELQLSVLFLRTFQFLCSHSCRDWLPLEGWNHVVKLLCGSLTRLLDSVRAIQAAGPWVQGPEQDLTQEALFVYTQVFCHALHIMAMLHPEVCEPLYVLALETLTCYETLSKTNPSVSSLLQRAHEQRFLKSIAEGIGPEERRQTLLQKMSSF,,,,,5,0,0,0

# Now from value to molecule:
"C-term flag (Co-IP with FLAG antibody, C-terminally FLAG-tagged B3GNT2, mass spectrometry count, unit not given)","N-term FLAG (Co-IP with FLAG antibody, N-terminally FLAG-tagged B3GNT2, mass spectrometry count, unit not given)","C-term IgG (Co-IP with IgG control antibody, C-terminally FLAG-tagged B3GNT2, mass spectrometry count, unit not given)","N-term IgG (Co-IP with IgG control antibody, N-terminally FLAG-tagged B3GNT2, mass spectrometry count, unit not given)",C-term flag [1],C-term IgG [2],N-term FLAG [3],N-term IgG [4],Molecule
,,,,2,0,3,0,IL13RA2 (protein) DTEIKVNPPQDFEIVDPGYLGYLYLQWQPPLSLDHFKECTVEYELKYRNIGSETWKTIITKNLHYKDGFDLNKGIEAKIHTLLPWQCTNGSEVQSSWAETTYWISPQGIPETKVQDMDCVYYNWQYLLCSWKPGIGVLLDTNYNLFYWYEGLDHALQCVDYIKADGQNIGCRFPYLEASDYKDFYICVNGSSENKPIRSSYFTFQLQNIVKPLPPVYLTFTRESSCEIKLKWSIPLGPIPARCFDYEIEIREDDTTLVTATVENETYTLKTTNETRQLCFVVRSKVNIYCSDDGIWSEWSDKQCWEGEDLSKKTLLRFWLPFGFILILVIFVTGLLLRKPNTYPKMIPEFFCDT
,,,,26,16,23,17,IMMT (protein) STSGSSGLTTGKIAGAGLLFVGGGIGGTILYAKWDSHFRESVEKTIPYSDKLFEMVLGPAAYNVPLPKKSIQSGPLKISSVSEVMKESKQPASQLQKQKGDTPASATAPTEAAQIISAAGDTLSVPAPAVQPEESLKTDHPEIGEGKPTPALSEASSSSIRERPPEEVAARLAQQEKQEQVKIESLAKSLEDALRQTASVTLQAIAAQNAAVQAVNAHSNILKAAMDNSEIAGEKKSAQWRTVEGALKERRKAVDEAADALLKAKEELEKMKSVIENAKKKEVAGAKPHITAAEGKLHNMIVDLDNVVKKVQAAQSEAKVVSQYHELVVQARDDFKRELDSITPEVLPGWKGMSVSDLADKLSTDDLNSLIAHAHRRIDQLNRELAEQKATEKQHITLALEKQKLEEKRAFDSAVAKALEHHRSEIQAEQDRKIEEVRDAMENEMRTQLRRQAAAHTDHLRDVLRVQEQELKSEFEQNLSEKLSEQELQFRRLSQEQVDNFTLDINTAYARLRGIEQAVQSHAVAEEEARKAHQLWLSVEALKYSMKTSSAETPTIPLGSAVEAIKANCSDNEFTQALTAAIPPESLTRGVYSEETLRARFYAVQKLARRVAMIDETRNSLYQYFLSYLQSLLLFPPQQLKPPPELCPEDINTFKLLSYASYCIEHGDLELAAKFVNQLKGESRRVAQDWLKEARMTLETKQIVEILTAYASAVGIGTTQVQPE
,,,,15,11,16,10,CHCHD3 (protein) GGTTSTRRVTFEADENENITVVKGIRLSENVIDRMKESSPSGSKSQRYSGAYGASVSDEELKRRVAEELALEQAKKESEDQKRLKQAKELDRERAAANEQLTRAILRERICSEEERAKAKHLARQLEEKDRVLKKQDAFYKEQLARLEERSSEFYRVTTEQYQKAAEEVEAKFKRYESHPVCADLQAKILQCYRENTHQTLKCSALATQYMHCVNHAKQSMLEKGG
